Experimental data reported in US12613245 (CORNELL UNIVERSITY, dated 2026).

Assays:
[1] = target: T1, recombinant/purified KIAA1199/CEMIP protein (amino acids 1-649) (human, UniProt Q8WUJ3 31-649); assay: ELISA on recombinant CEMIP, purified antibody (with flow cytometry as second assay)
T1 construct: Truncated CEMIP used as immunogen and as ELISA antigen; also called truncated version of KIAA1199/CEMIP protein
T1 sequence: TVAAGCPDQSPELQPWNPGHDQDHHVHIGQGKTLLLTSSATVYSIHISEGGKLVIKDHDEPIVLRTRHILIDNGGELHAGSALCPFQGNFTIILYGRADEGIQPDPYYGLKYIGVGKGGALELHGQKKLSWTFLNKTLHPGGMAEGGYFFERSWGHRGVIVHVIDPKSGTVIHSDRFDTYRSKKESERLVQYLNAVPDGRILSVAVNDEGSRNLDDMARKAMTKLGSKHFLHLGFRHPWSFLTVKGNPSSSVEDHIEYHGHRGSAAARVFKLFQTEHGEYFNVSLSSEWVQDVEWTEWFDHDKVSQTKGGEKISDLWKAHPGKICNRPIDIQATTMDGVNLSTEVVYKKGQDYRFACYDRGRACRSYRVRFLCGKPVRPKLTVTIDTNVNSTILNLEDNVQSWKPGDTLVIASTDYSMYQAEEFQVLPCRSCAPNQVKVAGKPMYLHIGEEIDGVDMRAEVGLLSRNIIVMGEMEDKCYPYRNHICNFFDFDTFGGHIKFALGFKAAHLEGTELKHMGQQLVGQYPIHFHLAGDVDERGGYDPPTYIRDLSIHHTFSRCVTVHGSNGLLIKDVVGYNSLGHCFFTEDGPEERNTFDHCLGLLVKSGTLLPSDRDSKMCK

[2] = target: T2, native cell surface CEMIP/KIAA1199 on human MKN45 gastric and N2LA lung cancer cells (human, UniProt Q8WUJ3 31-1361); assay: flow cytometry on MKN45 cells
T2 construct: Endogenous CEMIP on live CEMIP-high human cell lines (MKN45, N2LA), the target in flow cytometry; also called native CEMIP expressed on the surface
T2 sequence: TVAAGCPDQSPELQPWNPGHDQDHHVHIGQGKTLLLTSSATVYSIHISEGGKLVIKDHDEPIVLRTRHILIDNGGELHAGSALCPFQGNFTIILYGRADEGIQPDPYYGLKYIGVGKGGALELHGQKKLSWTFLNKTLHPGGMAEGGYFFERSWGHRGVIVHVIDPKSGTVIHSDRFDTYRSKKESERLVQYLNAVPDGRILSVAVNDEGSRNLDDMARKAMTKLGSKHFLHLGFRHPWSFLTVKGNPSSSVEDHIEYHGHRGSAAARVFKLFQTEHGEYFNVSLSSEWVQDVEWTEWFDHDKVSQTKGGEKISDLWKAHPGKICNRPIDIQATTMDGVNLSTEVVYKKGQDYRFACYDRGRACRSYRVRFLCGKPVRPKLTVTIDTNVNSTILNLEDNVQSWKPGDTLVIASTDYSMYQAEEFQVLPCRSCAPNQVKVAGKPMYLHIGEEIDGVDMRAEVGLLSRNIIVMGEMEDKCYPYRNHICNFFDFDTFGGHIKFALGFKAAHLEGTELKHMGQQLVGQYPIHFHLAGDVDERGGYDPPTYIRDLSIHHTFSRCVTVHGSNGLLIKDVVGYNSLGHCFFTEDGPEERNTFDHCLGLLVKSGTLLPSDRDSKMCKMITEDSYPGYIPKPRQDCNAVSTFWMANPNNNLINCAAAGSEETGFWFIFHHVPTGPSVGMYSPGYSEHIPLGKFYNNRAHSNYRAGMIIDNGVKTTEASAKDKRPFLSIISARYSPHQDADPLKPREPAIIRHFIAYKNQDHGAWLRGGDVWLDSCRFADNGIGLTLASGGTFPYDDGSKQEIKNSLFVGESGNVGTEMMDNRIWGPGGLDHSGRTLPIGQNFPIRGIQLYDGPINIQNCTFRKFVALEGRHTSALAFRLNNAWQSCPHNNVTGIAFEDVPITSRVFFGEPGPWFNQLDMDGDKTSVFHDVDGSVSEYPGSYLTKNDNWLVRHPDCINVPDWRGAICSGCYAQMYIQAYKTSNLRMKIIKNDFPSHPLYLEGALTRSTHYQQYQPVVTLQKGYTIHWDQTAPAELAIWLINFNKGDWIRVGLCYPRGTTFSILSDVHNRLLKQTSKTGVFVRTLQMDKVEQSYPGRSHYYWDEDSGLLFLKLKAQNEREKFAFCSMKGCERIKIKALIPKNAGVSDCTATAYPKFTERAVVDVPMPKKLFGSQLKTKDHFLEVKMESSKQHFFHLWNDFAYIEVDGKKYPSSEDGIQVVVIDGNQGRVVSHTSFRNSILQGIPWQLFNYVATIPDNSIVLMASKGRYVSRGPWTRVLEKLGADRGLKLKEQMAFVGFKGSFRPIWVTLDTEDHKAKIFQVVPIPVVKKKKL

[3] = target: T2, native cell surface CEMIP/KIAA1199 on …; assay: flow cytometry on live MKN45 and N2LA cells, purified antibody
Method: The binding of anti-CEMIP antibodies to native CEMIP expressed on the surface of human MKN45 gastric and N2LA lung cancer cell lines is shown.
Purified monoclonal antibodies were tested in secondary flow-cytometry screens on 2 CEMIPhi cell lines, MKN45 and N2LA (FIG. 13). Flow cytometry is performed on live cells, and antibodies bind to the native cell surface CEMIP/KIAA1199. Three antibody clones with high affinity and specificity for human KIAA1199/CEMIP were identified from the first screen: 07F11C02, 10F01B02 and 01F11A01, and the sequence of these antibodies was obtained (Table 12). One of these clones resulted from the protein immunization and two resulted from the DNA immunization (FIG.

Binder | binding result [1] | binding result [2] | binding result [3]
12D08 (antibody, mouse IgG2a, kappa, V domains shown, Mouse monoclonal from hybridoma (second phase screen), IgG2a kappa; also called cAb5777) VH: EVQLQQSGAELVKPGASVKLSCTASGFNIKDTYMHWVKQRPEQGLIWIGNIDPANGHTKYAPKFQGKATITADTSSNTAYLQLSSLTSEDTAVYYCARSNDYDVDFDYWGQGTTLTVSS VL: DIVMSQSPSSLAVSAGEKVTMSCKSSQSLLNSRTRKNYLAWYQQKPGQSPKLLIYWASTRESGVPDRFTGSGSGTDFSLTISSVQAEDLAVYYCKQSYNLYTFGGGTKLEIKR | binds | binds | –
07F11C02 (antibody, mouse IgG2a, kappa, V domains shown, Mouse monoclonal purified from hybridoma, IgG2a kappa; also called cAb4853) VH: DVQLVESGGGLVQPGGSRKLSCAASGFAFSSFGMHWVRQAPERGLEWVAYISSASNTIYYADTVKGRFTISRDNPKSTLFLQMTSLRSEDTAIYYCAKRDWDLYAMDYWGQGTSVTVSS VL: DIVMTQSQKFLSTSVGDRVTITCKASQNVGTAVAWYQQKPGQSPELLIYSASNRHTGVPARFTGSGSGTDFTLTITNMQSEDLADYFCQQYSSSPTFGGGTKLESKR | – | – | binds
13G04 (antibody, mouse IgG1, kappa, V domains shown, Mouse monoclonal from hybridoma (second phase screen), IgG1 kappa; also called cAb5778) VH: EVHLQQSGPELVKPGASMKISCKASGYSFTAYTMNWVKQSHGKNLEWIGLINPYNGGTTYNQKFKGKATLTVDKSSSTAYMELLSLTSEDSAVYYCASYYGGRGWYFDVWGAGTSVTVSS VL: DIVLTQSPASLAVSLGQRATISCRASKSVSTSGYSYVHWYQQKPGQPPKLLIYLASNLESGVPARFSGSGSGTDFTLNIHPVEEEDAATYYCQNSRELPYTFGGGTKLEMKR | binds | binds | –
12D02 (antibody, mouse IgG1, kappa, V domains shown, Mouse monoclonal from hybridoma (second phase screen), IgG1 kappa; also called cAb5775) VH: EVQLQQSGPELVKPGASMKISCKASGYSFTAYTMNWVKQSHGENLEWIGLINPYNGGTTYNQKFKGKATLTVDKSSSTAYMELLSLTSEDSAVYYCASYDYGYAMDYWGQGTSVTVSS VL: DVLMTQTPLSLPVSLGDQASISCRSSQSIVHRNGNTYLEWYLQKPGQSPKLLIYKVSNRFSGVPDRFSGSGSGTDFTLKISRVEAEDLGVYYCFQGSHVPWTFGGGTKLEIKR | binds | binds | –
12A12 (antibody, mouse IgG1, kappa, V domains shown, Mouse monoclonal from hybridoma (second phase screen), IgG1 kappa; also called cAb5776) VH: EVQLQQSGPELVKPGVSMKISCKASGYSFTAYTMNWVKQSHGENLEWIGLINPYNGGTTYNQKFKGKATLTVDKSSSTAYMELLSLTSEDSAVYYCASYDYGYAMDYWGQGTSVTVSS VL: DVLMTQTPLSLPVSLGDQASISCRSSQSIVHRSGNTYLEWYLQKPGQSPKLLIYKVSNRFSGVPDRFSGSGSGTDFTLKISRVEAEDLGVYYCFQGSHVPWTFGGGTKLEIKR | binds | binds | –
